Test results published in patent US20260217804A1 (BIOARCTIC, published 2026).

T1: AβpE11-40 monomer (UniProt P05067 682-711, pyroglutamate (pE) at position 11, the N-terminus)
T1 construct: range 11-40; The range counts on Aβ numbering, not on APP
T1 peptide (looked up): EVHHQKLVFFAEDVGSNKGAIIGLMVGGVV

B1: H2L7 (antibody, human IgG1, kappa, V domains shown)
VH: EVQLVQSGAEVKKPGASVRLSCKASGYSFTGFTMNWVRQALGQGLEWMGLINPYNGVTTYNQKFKGRLTMTRDMSTRTVYMDLSSLRYEDTAVYYCTREGNWEGVYWGQGTLVTVSS
VL: EIVLTQSPLSLSVTLGQSASISCRSSQSLLDSNGKTYLHWFILRPGQSPRRLIYLVSILDSGVPDRFSGSGSGTDFTLKISRVEAEDVGVYYCVQGTHFPFTFGSGTKLEIKR
notes: Humanized IgG1/kappa, expressed in CHO cells; also called humanized Pyr12.2 variant H2L7; VH2/VL7
B2: H2L7-K12V/R71A (antibody, human IgG1, kappa)
heavy: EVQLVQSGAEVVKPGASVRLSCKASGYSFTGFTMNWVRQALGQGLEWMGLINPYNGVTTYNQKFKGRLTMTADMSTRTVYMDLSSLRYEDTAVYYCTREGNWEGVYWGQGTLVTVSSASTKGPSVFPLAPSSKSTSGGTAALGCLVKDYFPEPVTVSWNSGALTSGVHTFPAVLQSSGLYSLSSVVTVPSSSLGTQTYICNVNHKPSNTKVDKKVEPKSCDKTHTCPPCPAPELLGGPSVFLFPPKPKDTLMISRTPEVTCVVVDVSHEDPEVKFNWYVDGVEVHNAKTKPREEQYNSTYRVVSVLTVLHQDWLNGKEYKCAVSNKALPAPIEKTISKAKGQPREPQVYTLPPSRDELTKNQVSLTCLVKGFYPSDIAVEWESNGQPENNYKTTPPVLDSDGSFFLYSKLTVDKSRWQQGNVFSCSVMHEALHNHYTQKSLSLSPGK
light: EIVLTQSPLSLSVTLGQSASISCRSSQSLLDSNGKTYLHWFILRPGQSPRRLIYLVSILDSGVPDRFSGSGSGTDFTLKISRVEAEDVGVYYCVQGTHFPFTFGSGTKLEIKRTVAAPSVFIFPPSDEQLKSGTASVVCLLNNFYPREAKVQWKVDNALQSGNSQESVTEQDSKDSTYSLSSTLTLSKADYEKHKVYACEVTHQGLSSPVTKSFNRGEC
notes: Variant of H2L7 with changes in VH only
B3: H2L7-K12V/R83T (antibody, human IgG1, kappa, V domains shown)
VH: EVQLVQSGAEVVKPGASVRLSCKASGYSFTGFTMNWVRQALGQGLEWMGLINPYNGVTTYNQKFKGRLTMTRDMSTRTVYMDLSSLTYEDTAVYYCTREGNWEGVYWGQGTLVTVSS
VL: EIVLTQSPLSLSVTLGQSASISCRSSQSLLDSNGKTYLHWFILRPGQSPRRLIYLVSILDSGVPDRFSGSGSGTDFTLKISRVEAEDVGVYYCVQGTHFPFTFGSGTKLEIKR
notes: as for B2
B4: AβpE11-28 monomer (peptide, UniProt P05067 682-699, looked up)
peptide: EVHHQKLVFFAEDVGSNK
modifications: pyroglutamate (pE) at position 11, the N-terminus
notes: range 11-28; The range counts on Aβ numbering, not on APP
B5: H9L8 (antibody, human IgG1, kappa, V domains shown)
VH: QVQLVQSGPEVKKPGSSVKVSCKASGYSFTGFTMNWVRQTPGKGLEWIGLINPYNGVTTYNQKFKGRVTITADESTRTAYMELLSLTYEDTAVYYCTREGNWEGVYWGQGTPVTVSA
VL: EVVLTQSPLSISVTLGQSASISCRSSQSLLDSNGKTYLHWFILRPGQSPRRLIYLVSILDSGIPDRFSGSGSGTDFTLKISRVEAEDVGVYYCVQGTHFPFTFGGGTKLEIKR
notes: Humanized IgG1/kappa, expressed in CHO cells; also called humanized Pyr12.2 variant H9L8; VH9/VL8

Columns and labels:
[1] = molecular target: T2, Aβ1-40 monomer (UniProt P05067 672-711); test: inhibition ELISA
T2 construct: range 1-40
Experimental: (§1) The humanized antibodies were incubated at a fixed concentration (0.5 μg/ml) with titrating concentrations of the different Aβ antigens. […] The samples were incubated on the plate for 25 min without shaking followed by washing, incubation with detection antibody, another washing step and finally incubation with alkaline phosphatase substrate.

[2] = molecular target: T1, AβpE11-40 monomer; test: inhibition ELISA
Experimental: as §1

[3] = molecular target: T3, Aβ1-42 monomer (UniProt P05067 672-713); test: capture ELISA: plate coated with rabbit anti-Aβ42, peptide monomer captured, hybridoma supernatant, anti-mouse IgG-HRP, OD450 (Example 1)
T3 construct: range 1-42; The range counts on Aβ numbering, not on APP; also called monomeric Aβ1-42

[4] = molecular target: T4, Aβ2-42 monomer (UniProt P05067 673-713); test: as above
T4 construct: range 2-42; The range counts on Aβ numbering, not on APP

[5] = molecular target: T5, Aβ1-42 protofibrils (UniProt P05067 672-713); test: inhibition ELISA
T5 construct: range 1-42; Soluble aggregates of Aβ1-42; The range counts on Aβ numbering, not on APP
Experimental: as §1

[6] = molecular target: T6, Aβ1-28 monomer (UniProt P05067 672-699); test: inhibition ELISA
T6 construct: range 1-28; The range counts on Aβ numbering, not on APP
Experimental: as §1

[7] = molecular target: T7, Aβ2-28 monomer (UniProt P05067 673-699); test: inhibition ELISA
T7 construct: range 2-28; The range counts on Aβ numbering, not on APP
Experimental: as §1

[8] = molecular target: T8, Aβ3-28 monomer (UniProt P05067 674-699); test: inhibition ELISA
T8 construct: range 3-28; The range counts on Aβ numbering, not on APP
Experimental: as §1

[9] = molecular target: T9, AβpE3-28 monomer (UniProt P05067 674-699, pyroglutamate (pE) at position 3, the N-terminus); test: inhibition ELISA
T9 construct: range 3-28; The range counts on Aβ numbering, not on APP
Experimental: as §1

[10] = molecular target: T10, Aβ4-28 monomer (UniProt P05067 675-699); test: inhibition ELISA
T10 construct: range 4-28; The range counts on Aβ numbering, not on APP
Experimental: as §1

[11] = molecular target: T11, Aβ5-28 monomer (UniProt P05067 676-699); test: inhibition ELISA
T11 construct: range 5-28; The range counts on Aβ numbering, not on APP
Experimental: as §1

[12] = molecular target: B4; test: inhibition ELISA
Experimental: as §1

[13] = molecular target: T12, AβpE3-40 monomer (UniProt P05067 674-711, pyroglutamate (pE) at position 3, the N-terminus); test: SPR (Biacore 8K), antibody immobilised on CM5, monomer injected, 1:1 model
T12 construct: range 3-40; also called monomeric AβpE3-40
Experimental: For the measurements, 5 μg/ml of […] antibody was immobilized on the chip. The monomer was then injected over the chip using a 2-fold dilution in five steps starting at 250 nM, using 2 min injection of every […] concentration and a 20 min dissociation time. Regeneration of the surface between cycles was done by injecting 30 μl 3 M MgCl₂. The binding data was fitted to a 1:1 interaction model.
In all SPR experiments, 1×HBS-EP+ (Cytiva, cat. no. BR100669) was used to dilute antibodies and target antigens. Experiments were performed at 25° C.
Affinity evaluation and Ko determination by surface plasmon resonance: Binding interactions between antigens and antibodies were evaluated by SPR using a Biacore 8K instrument (Cytiva) according to standard procedures.

[14] = molecular target: B1; test: inhibition ELISA: antigen in solution titrated, antibody fixed (0.5 µg/ml), AβpE3-40 coat
Experimental: as §1

[15] = molecular target: B5; test: as above
Experimental: as §1

[16] = molecular target: B1; test: inhibition ELISA as in Example 6: antigen in solution titrated, antibody fixed, AβpE3-40 coat
Experimental: as §1

[17] = molecular target: B2; test: as above
Experimental: as §1

[18] = molecular target: B3; test: as above
Experimental: as §1

binding result [1] | binding result [5] | binding result [8] | binding result [9] | Binder | also measured
no binding (tested: 5 µM) |  |  |  | Pyr12.2 (antibody, IgG2c, V domains shown, also called recombinant antibody Pyr12.2; hybridoma clone Pyr12.2) VH: EVQLQQSGPELVKPGTSIKMSCKASGYSFTGFTMNWVKQSHGKNLEWIGLINPYNGVTTYNQKFKGKATITVDKSSRTAYMELLSLTYEDSAVYYCTREGNWEGVYWGQGTPVTVSA VL: EVVLTQTPLTLSVTIGQSASISCKSSQSLLDSNGKTYLHWFLLRPGQSPKRLIYLVSILDSGVPDRFTGSGSGTDFTLKISRVEAEDLGIYYCVQGTHFPFTFGSGTKLEIKR | binding result [2]: no binding (tested: 5 µM); binding result [3]: no binding (tested: no concentration on the sheet); binding result [4]: no binding (tested: no concentration on the sheet)
no binding (tested: 12.5 µM) | no binding (tested: 500 nM) | binds | binds | B1 | binding result [6]: no binding (tested: 12500 nM); binding result [7]: no binding (tested: 12500 nM); binding result [10]: no binding (tested: 12500 nM); binding result [11]: no binding (tested: 12500 nM); binding result [12]: no binding (tested: 12500 nM)
no binding (tested: 500 nM) | no binding (tested: 132 nM) |  |  | H2L7-K12V/R71A/R83T (antibody, human IgG1, kappa, Variant of H2L7 with changes in VH only) heavy: not shown light: EIVLTQSPLSLSVTLGQSASISCRSSQSLLDSNGKTYLHWFILRPGQSPRRLIYLVSILDSGVPDRFSGSGSGTDFTLKISRVEAEDVGVYYCVQGTHFPFTFGSGTKLEIKRTVAAPSVFIFPPSDEQLKSGTASVVCLLNNFYPREAKVQWKVDNALQSGNSQESVTEQDSKDSTYSLSSTLTLSKADYEKHKVYACEVTHQGLSSPVTKSFNRGEC | 
no binding (tested: 500 nM) | no binding (tested: 132 nM) | binds | binds | B2 | 
no binding (tested: 500 nM) | no binding (tested: 132 nM) | binds | binds | B3 | 
no binding (tested: 500 nM) | no binding (tested: 132 nM) |  |  | H2L7-R71A/R83T (antibody, human IgG1, kappa, Variant of H2L7 with changes in VH only) heavy: not shown light: EIVLTQSPLSLSVTLGQSASISCRSSQSLLDSNGKTYLHWFILRPGQSPRRLIYLVSILDSGVPDRFSGSGSGTDFTLKISRVEAEDVGVYYCVQGTHFPFTFGSGTKLEIKRTVAAPSVFIFPPSDEQLKSGTASVVCLLNNFYPREAKVQWKVDNALQSGNSQESVTEQDSKDSTYSLSSTLTLSKADYEKHKVYACEVTHQGLSSPVTKSFNRGEC | Kd [13]: 0.00462 µM; koff [13]: 0.000225 s⁻¹; kon [13]: 50100 M⁻¹ s⁻¹
 |  |  |  | B4 | IC50 [14]: > 12.5 µM; IC50 [15]: > 12.5 µM; IC50 [16]: > 12.5 µM; IC50 [17]: > 12.5 µM; IC50 [18]: > 12.5 µM
no binding (tested: 500 nM) | no binding (tested: 132 nM) |  |  | H2L7-R71A (antibody, human IgG1, kappa, Variant of H2L7 with a change in VH only) heavy: not shown light: EIVLTQSPLSLSVTLGQSASISCRSSQSLLDSNGKTYLHWFILRPGQSPRRLIYLVSILDSGVPDRFSGSGSGTDFTLKISRVEAEDVGVYYCVQGTHFPFTFGSGTKLEIKRTVAAPSVFIFPPSDEQLKSGTASVVCLLNNFYPREAKVQWKVDNALQSGNSQESVTEQDSKDSTYSLSSTLTLSKADYEKHKVYACEVTHQGLSSPVTKSFNRGEC | 
no binding (tested: 12.5 µM) | no binding (tested: 500 nM) | binds | binds | B5 | binding result [6]: no binding (tested: 12.5 µM); binding result [7]: no binding (tested: 12.5 µM); binding result [10]: no binding (tested: 12.5 µM); binding result [11]: no binding (tested: 12.5 µM); binding result [12]: no binding (tested: 12.5 µM)
no binding (tested: 5 µM) |  |  |  | Pyr7.1 (antibody, IgG2c, V domains shown, also called recombinant antibody Pyr7.1; hybridoma clone Pyr7.1) VH: KVQLQQSGPELVKPGTSIKMSCKTSGYSFTGYTLNWVKQSPGKNPEWIGLINPYNGITTYNPKFMGKATLTVDKSSSTAYMELLSLTSEDSAVYYCSREGNWEGVYWGQGTLVTVSA VL: not shown | binding result [2]: no binding (tested: 5 µM); binding result [3]: no binding (tested: no concentration on the sheet); binding result [4]: no binding (tested: no concentration on the sheet)
